According to US20210292414A1 (H LUNDBECK A S, published 2021):
Numbering of substitutions follows the chain as printed. Blank lines part the entries; values can stand above or below the binder they belong to.

Columns and labels:
Experiment in all cases: BLI (Octet384RED)
[1] = molecular target: T1, hBack
T1 chimeric human/tetraodon Sortilin extracellular region, BAP tag: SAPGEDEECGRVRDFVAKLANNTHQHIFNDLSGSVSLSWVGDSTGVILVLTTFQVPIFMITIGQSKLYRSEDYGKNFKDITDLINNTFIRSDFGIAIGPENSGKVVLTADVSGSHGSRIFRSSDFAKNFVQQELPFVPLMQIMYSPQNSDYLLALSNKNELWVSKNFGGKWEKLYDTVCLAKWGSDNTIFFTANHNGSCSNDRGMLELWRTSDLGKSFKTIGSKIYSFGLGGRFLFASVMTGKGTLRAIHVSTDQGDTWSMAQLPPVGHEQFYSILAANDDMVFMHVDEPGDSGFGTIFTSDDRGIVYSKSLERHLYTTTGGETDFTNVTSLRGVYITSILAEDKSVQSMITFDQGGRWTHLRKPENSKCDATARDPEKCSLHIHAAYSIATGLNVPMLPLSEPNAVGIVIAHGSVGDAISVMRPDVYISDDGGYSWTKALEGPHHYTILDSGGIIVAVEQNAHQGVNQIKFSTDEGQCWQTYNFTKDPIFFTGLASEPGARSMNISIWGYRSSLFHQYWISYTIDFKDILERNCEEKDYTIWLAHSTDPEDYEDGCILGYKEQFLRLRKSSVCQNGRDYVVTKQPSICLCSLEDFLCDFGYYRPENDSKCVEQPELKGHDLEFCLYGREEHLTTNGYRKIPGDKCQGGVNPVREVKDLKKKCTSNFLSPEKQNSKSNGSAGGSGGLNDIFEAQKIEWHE

[2] = molecular target: T2, Sortilin SORTECDBAP_tetra (tetraodon)
T2 construct: Fully tetraodon Sortilin ECD with BAP tag; also called tetraodon; tetraodon Sortilin
T2 chain: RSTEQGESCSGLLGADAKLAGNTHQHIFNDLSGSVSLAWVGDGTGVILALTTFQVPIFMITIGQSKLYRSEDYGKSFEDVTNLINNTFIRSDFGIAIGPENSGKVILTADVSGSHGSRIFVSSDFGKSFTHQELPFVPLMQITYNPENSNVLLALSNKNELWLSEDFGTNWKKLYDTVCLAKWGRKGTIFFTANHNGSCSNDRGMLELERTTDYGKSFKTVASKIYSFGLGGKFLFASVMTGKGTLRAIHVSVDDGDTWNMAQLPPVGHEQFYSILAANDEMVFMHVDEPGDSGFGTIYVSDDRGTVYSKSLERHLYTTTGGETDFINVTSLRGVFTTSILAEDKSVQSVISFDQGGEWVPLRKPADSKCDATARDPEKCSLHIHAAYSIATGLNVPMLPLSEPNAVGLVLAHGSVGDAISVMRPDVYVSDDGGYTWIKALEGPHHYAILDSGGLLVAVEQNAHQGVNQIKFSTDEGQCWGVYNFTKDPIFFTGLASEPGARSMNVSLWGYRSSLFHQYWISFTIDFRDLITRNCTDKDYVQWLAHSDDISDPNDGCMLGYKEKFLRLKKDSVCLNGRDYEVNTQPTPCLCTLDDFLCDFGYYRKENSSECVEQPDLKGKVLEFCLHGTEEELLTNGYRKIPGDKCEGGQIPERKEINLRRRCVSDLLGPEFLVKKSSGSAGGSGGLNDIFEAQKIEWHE

[3] = molecular target: T3, Sortilin hSORTECDBAP (human, UniProt Q99523 78-755)
T3 sequence: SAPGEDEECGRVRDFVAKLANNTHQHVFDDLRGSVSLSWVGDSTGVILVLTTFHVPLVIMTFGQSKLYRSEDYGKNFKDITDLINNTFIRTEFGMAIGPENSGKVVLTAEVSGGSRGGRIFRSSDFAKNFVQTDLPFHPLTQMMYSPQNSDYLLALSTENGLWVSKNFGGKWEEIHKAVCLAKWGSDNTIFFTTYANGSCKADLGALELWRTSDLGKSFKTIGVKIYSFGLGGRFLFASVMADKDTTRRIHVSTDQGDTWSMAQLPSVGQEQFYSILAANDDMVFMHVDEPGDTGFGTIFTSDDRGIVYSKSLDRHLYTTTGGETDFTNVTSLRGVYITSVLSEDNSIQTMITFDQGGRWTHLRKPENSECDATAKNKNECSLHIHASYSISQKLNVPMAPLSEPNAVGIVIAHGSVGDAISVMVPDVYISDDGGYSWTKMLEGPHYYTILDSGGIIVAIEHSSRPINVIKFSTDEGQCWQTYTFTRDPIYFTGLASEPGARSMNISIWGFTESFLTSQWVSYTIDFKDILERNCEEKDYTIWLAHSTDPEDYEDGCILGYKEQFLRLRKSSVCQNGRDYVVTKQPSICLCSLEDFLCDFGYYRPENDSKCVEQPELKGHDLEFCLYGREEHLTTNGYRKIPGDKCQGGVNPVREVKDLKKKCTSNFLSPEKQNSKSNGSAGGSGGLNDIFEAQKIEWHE

[4] = molecular target: T4, Sortilin SORTECDBAP_hB06-10 (human/tetraodon chimera)
T4 construct: Shuffle construct: chimeric human/tetraodon Sortilin ECD with BAP tag
T4 chain: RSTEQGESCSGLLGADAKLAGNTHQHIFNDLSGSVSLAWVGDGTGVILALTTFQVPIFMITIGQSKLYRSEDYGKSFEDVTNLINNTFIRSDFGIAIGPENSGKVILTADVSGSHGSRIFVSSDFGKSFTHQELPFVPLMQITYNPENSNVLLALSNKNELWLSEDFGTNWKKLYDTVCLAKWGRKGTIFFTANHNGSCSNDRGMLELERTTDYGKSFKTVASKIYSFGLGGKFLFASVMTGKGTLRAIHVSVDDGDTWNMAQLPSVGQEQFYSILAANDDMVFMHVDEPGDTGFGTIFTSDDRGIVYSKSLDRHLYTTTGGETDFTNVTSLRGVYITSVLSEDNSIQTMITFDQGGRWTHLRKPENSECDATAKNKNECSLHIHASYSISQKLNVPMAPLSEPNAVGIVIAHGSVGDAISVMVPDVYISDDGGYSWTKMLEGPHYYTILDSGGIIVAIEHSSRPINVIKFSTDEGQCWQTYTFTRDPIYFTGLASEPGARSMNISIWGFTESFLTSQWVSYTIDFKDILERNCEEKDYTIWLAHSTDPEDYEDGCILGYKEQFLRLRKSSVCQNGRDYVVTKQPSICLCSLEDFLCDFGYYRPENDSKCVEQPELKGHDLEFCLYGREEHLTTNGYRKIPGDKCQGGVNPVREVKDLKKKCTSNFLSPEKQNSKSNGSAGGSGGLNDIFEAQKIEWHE

EC50 [1]: 1.54 ng/mL
binding result [2]: no binding
EC50 [3]: 1.34 ng/mL
EC50 [4]: 1.16 ng/mL
B1: IgG1-6003-910 (antibody, V domains shown)
VH: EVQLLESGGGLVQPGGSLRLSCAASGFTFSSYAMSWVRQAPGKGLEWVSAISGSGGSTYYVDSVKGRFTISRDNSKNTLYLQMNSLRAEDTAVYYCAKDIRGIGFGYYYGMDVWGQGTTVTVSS
VL: EIVLTQSPATLSLSPGERATLSCRASQSVSSYLVWYQQKPGQAPRLLIYDASNRATGIPARFSGSGSGTDFTLTISSLEPEDFAVYYCQQRSNWPPTFGQGTRLEIK
notes: also called Antibody 6003-910

EC50 [1]: 1.49 ng/mL
binding result [2]: no binding
EC50 [3]: 1.35 ng/mL
EC50 [4]: 1.12 ng/mL
B2: IgG1-6003-972 (antibody, V domains shown)
VH: QVQLVESGGGVVQPGRSLRLSCAASGFTFSDYAMHWVRRAPGKGLEWVVVISYDGSNKYYADSVKGRFTISRDNSKNTLYLQMNSLRAEDTAVYYCARDPSGGWYFDLWGRGTLVTVSS
VL: B1 VL with V34A, V85L, N93H, P96R, R103K, L104V
notes: also called Antibody 6003-972

EC50 [1]: 3.2 ng/mL
binding result [2]: no binding
EC50 [3]: 3.49 ng/mL
EC50 [4]: 2.63 ng/mL
B3: Antibody 6003-799 (antibody, human IgG1, V domains shown)
VH: QVQLVESGGGVVQPGRSLRLSCAASGFTFSSYGMHWVRQAPGKGLEWVTVISYDGSNKYYADSVKGRFTISRDNSKNTLYLQMNSLRAEDTAVYYCAKLTGDAFDIWGQGTMVTVSS
VL: EIVLTQSPATLSLSPGERATLSCRASQSVSSYLVWYQQKPGQAPRLLIYHASNRATGIPARFSGSGSGTDFTLTISSLEPEDFAVYYCQQRSNWPRITFGQGTRLEIK

EC50 [1]: 2.59 ng/mL
binding result [2]: no binding
EC50 [3]: 1.97 ng/mL
EC50 [4]: 1.49 ng/mL
B4: Antibody 6003-822 (antibody, human IgG1, V domains shown)
VH: EVQLLESGGGLVQPGESLTLSCAASGFTLSSYAMSWVRQAPGKGLEWVSSISGRLGTTYYAASVKGRFTISRDNSKNTLYLQMNSLRAEDTAIYSCAKAPSDAFDIWGQGTMVTVSS
VL: B3 VL with V34A, H50D, R96I, I97F, Q101P, R104K, L105V, E106D

EC50 [1]: 2.72 ng/mL
binding result [2]: no binding
EC50 [3]: 3.4 ng/mL
EC50 [4]: 2.44 ng/mL
B5: Antibody 6003-886 (antibody, human IgG1, V domains shown)
VH: QVQLVQSGAEVKKPGASVKVSCKASGYTFTKYGISWVRQAPGQGLEWMGWISAYNGNTNYAQKLQDRVTMTTDTFTSTAYMELRSLRSDDTAVYFCARDGPLTGDFTFYGMDVWGQGTTVTVSS
VL: B3 VL with V34A, H50D, R96P, I97F, Q101P, R104K, L105V, E106D

EC50 [1]: 1.16 ng/mL
binding result [2]: no binding
EC50 [3]: 1.06 ng/mL
EC50 [4]: 0.91 ng/mL
B6: Antibody 6003-900 (antibody, human IgG1, V domains shown)
VH: EVQLVESGGGLVKPGGSLRLSCAASGFTFSSYSMNWVRQAPGKGLEWVSSISSSSSYIYYADSVKGRFTISRDNAKNSLYLQMNSLRAEDTAVYYCARRGSGSYDAFDIWGQGTMVTVSS
VL: EIVLTQSPDFQSVTPKEKVTITCRASQSIGYSLHWYQQKPDQSPKLLIKYASQSFSGVPSRFSGSGSGTDFTLTINSLEAEDAAAYYCHQSSSLPLTFGGGTKVEIK
notes: also called antibody 900; Sortilin human antibody 900
